One molecule from patent US20220025032A1 (Novartis, published 2022) can be followed below.

One may read the IC50 as the concentration that gives 50% inhibition. Usually Kd stands for a measure of binding affinity in units of concentration.

Like-named read-outs stand apart in the source and are kept apart here.

Assay [1] addresses T1, Human VEGF165 (human, UniProt P15692 27-191).
T1 construct: mature; biotinylated in the VEGFR2 ELISAs; also called human VEGF-A; VEGF-A
Nature of the assay: competition ELISA: antibody pre-incubated with 400 pM VEGF-biotin, added to coated VEGFR2, streptavidin-HRP detection; y axis OD. How it is done: (§1) The plates were then washed 3 times using 1λTBST. The plates were blocked in 2% BSA diluent (0.1% Tween 20/0.1% TirtonX100) overnight. After blocking, the plates were washed 3 times using TB ST and then the sample mixture was added at 20 μl/well. The sample mixture consisted a final fixed concentration of VEGF-biotin (in-house) at 400 pM and a 15 point 1:2 serial dilution of the antibody starting at 20 nM. The sample mixture was pre-incubated for 1 hour prior to adding to the plate and then incubated for another hour at room temperature on the plate. Afterwards, the plate was washed 3 times using TBST and 20 μl/well of Streptavidin-HRP diluted at 1:5000 was added for an incubation time of 1 hour. The plates were washed 3 times in TBST and then 20 μl/well of TMB substrate was added. TMB is a chromogen that yields a blue color when oxidized. TMB was incubated for 10 minutes until the signal saturated in the no antibody samples, and then 10 μl/well of 2N sulfuric acid was added which then changes the blue color to yellow and this now has a maximum absorbance at 450 nm.
(An ELISA detects its analyte on a solid surface through an enzyme-linked reagent.)

For assay [2], the target named is T1, Human VEGF165. Nature of the assay: competition ELISA: antibody pre-incubated with biotinylated human VEGF, added to coated human VEGFR2-Fc, streptavidin-HRP detection; blocked partner VEGFR2-Fc. How it is done:
NVS11 neutralization of VEGF was determined by ELISA. Various concentrations of NVS11 was pre-incubated with biotinylated human VEGF and added to VEGFR2-Fc coated plates.

For assay [3], the target named is T1, Human VEGF165. Nature of the assay: competition ELISA: antibody pre-incubated with 400 pM VEGF-biotin, added to coated VEGFR2, streptavidin-HRP detection; y axis OD. The method, then: as §1
This is another data set of the same source.

A further assay deals with T2, Human BTC (human, UniProt P35070 32-111).
T2 construct: Soluble human BTC of the Biacore, ELISA, MSD and cell assays; also called human betacellulin; soluble human BTC
T2 sequence: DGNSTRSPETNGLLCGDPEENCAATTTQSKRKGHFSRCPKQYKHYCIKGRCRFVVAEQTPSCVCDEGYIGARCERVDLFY
Nature of the assay: sandwich ELISA: BTC coated, Fab titrated, detection with VEGF-biotin (bridging readout). How it is done:
A sandwich enzyme linked immunosorbent assay (ELISA) was performed by coating either BTC or VEGF, then adding a titration of NVS11 followed by detection with the second target, either biotinylated BTC or biotinylated VEGF. […] Neither of the single Fabs, NVS1 or NVS8, could bind to both BTC and VEGF at the same time.

Assay [4] has as its target T3, membrane-bound human BTC on 293F-hBTC cells (human, UniProt P35070 32-111).
T3 construct: the transfected construct is not described; also called membrane-anchored BTC
T3 sequence: T2 sequence
Nature of the assay: flow cytometry on 293F cells with membrane-bound human BTC, anti-human Fab detection. The method, then: After washing the cells, the cells were dissociated using Versene at 37° C. The cells were washed with FACS buffer and plated at 100 μl in a 96 well plate using cells at 1×10⁶ cells/ml. Then 100 μl of a serial dilution of antibodies starting at 50 nM was used. The cells were incubated, washed and then treated with the secondary anti-human Fab-FITC antibody. The antibodies only bound to the cells expressing BTC. After which the cells were washed and analyzed on the Attune Flow Cytometry. All data analysis was carried out using Flow Jo software.
On the technique in general: In flow cytometry, cells or beads pass a laser one at a time.

The target of assay [5] is T1, Human VEGF165. Nature of the assay: competition ELISA: antibody pre-incubated with 400 pM VEGF-biotin, added to coated VEGFR2, streptavidin-HRP detection; y axis OD. The method, then:
as §1
The source holds these as a separate data set.

The target of the next assay is T4, Human BTC-avitag-biotin (human, UniProt P35070 32-111, biotin on the avitag).
T4 construct: also called biotin-BTC; soluble human BTC-avitag-biotin
T4 sequence: T2 sequence
Nature of the assay: flow cytometry, BTC-ErbB4 Cell Binding Inhibition with HKB11 cells over-expressing human ErbB4. How it is done: In order to assess potency of the Fabs and bispecific in neutralizing binding of BTC to its receptor Erb 1 or ErbB4, the following assay was performed. HKB11 over-expressing either ErbB1 or ErbB4 cells were plated 1×10⁵ cells/well. Cells were washed once with FACS buffer by spun down at 1200 rpm for 5 minutes and supernatant removed. Next, the Fab sample dilutions and BTC were prepared in FACS buffer. Human BTC-avitag-biotin was diluted to a fixed concentration of 15 nM. The test Fab samples were prepared at a starting concentration of 40 nM and titrated for 9 points at a serial dilution of 1:2. Both biotin-BTC and the test Fab samples are incubated for 30 minutes at room temperature. The pre-incubated samples were then added to the cell plate at 100 μl per well in duplicate and incubated for 1 hour on ice. […]
Measurements were performed on Attune Flow Cytometry machine. Data were analysed using the Flow Jo software. The live cell populations analysed were gated in forward and side scattering (FSC-A/SSC-A dot plot). The interval gate was established on the control histogram, which was obtained with sample incubated in streptavidin-Alexa Fluor488 only, and subsequently, determined percent of positive binding events of cells carrying membrane-bound receptor ErbB1 or ErbB4 and biotin-BTC. The median of fluorescence intensity (MFI) value was also derived for the live cell population. […]

For assay [6], the target named is T1, Human VEGF165. Nature of the assay: SPR Biacore T200, anti-Fab capture, antigen as analyte (cells shifted left after the merged BTC cell). A general note: SPR reads the build-up and loss of mass on a sensor chip optically.

T1 sequence (P15692 other isoform, or with tags, fused parts or gaps): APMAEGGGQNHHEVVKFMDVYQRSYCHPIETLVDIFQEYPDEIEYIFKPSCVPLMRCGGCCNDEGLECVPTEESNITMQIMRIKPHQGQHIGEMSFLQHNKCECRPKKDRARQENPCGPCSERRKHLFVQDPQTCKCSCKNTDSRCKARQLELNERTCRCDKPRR

B1: NVS8 (Fab, V domains shown)
VH: EVQLVESGGGLVQPGGSLRLSCTASGFSLTDYYYMTWVRQAPGKGLEWVGFIDPDDDPYYATWAKGRFTISRDNSKNTLYLQMNSLRAEDTAVYYCAGGDHNSGWGLDIWGQGTLVTVSS
VL: EIVMTQSPSTLSASVGDRVIITCQASEIIHSWLAWYQQKPGKAPKLLIYLASTLASGVPSRFSGSGSGAEFTLTISSLQPDDFATYYCQNVYLASTNGANFGQGTKLTVLK
notes: Fab version of the anti-VEGF 1008 scFv; also called anti-VEGF Fab
In the case of B1, the IC50 is 1.35 nM in the assay with Human VEGF165 [1], 0.737 nM in the assay with Human VEGF165 [3] and 1.35 nM in the assay with Human VEGF165 [5]. Besides, the “IC50 (read off the curve)” value with Human VEGF165 [2] was about 700 pM. Also, the figures for the binding result (with Human BTC; in assay [4]; in the assay with Human BTC-avitag-biotin) were “no binding (tested: about 10-20 nM (last marker hidden))”, “no binding (tested: about 25 nM)” and “no binding (tested: about 25 nM)”, respectively. In addition, in the assay with Human VEGF165 [6], the dissociation constant Kd was 3 pM.
